Among the data in publication PMC5389555 are percent reduction of co-precipitation after RNase A treatment and percent reduction of co-precipitation against GSK3β-WT values, retold here.

The target in one experiment is HA-GSK3β (wild-type) (UniProt P49841). Briefly: co-IP; HEK293T transfected with HA-GSK3β-WT; anti-HA beads washed in TBS, then RNase A treatment (200 μg/ml) for 15 min at 4°C; blots for p72, DGCR8, Drosha and HA.
In the next experiment the target is HA-GSK3β-K85R (UniProt P49841). Briefly: co-IP; HEK293T transfected with HA-GSK3β-WT, -S9A, -K85R or -K85A,K86A; lysates pre-cleared, EZView anti-HA agarose beads, 4°C overnight; blots for p72, DGCR8 and HA.

Turning to “p72 (DDX17) (endogenous) (natural protein)”, in the experiment with HA-GSK3β (wild-type), the percent reduction of co-precipitation after RNase A treatment was more than 50%. The same substance showed a percent reduction of co-precipitation against GSK3β-WT in the experiment with HA-GSK3β-K85R of 60%.
